According to patent US20100150941A1 (DSO NATIONAL LABORATORIES, published 2010):

What was measured:
[1] = biological target: T1, hemagglutinin of A/Vietnam/1203/04 (H5N1) on virus (influenza A virus H5N1, …, UniProt Q80A26 6-557); test: inferred from HI and virus neutralization assays
[2] = biological target: T1, hemagglutinin of A/Vietnam/1203/04 …; test: HI assay

B1: VN04-3 (antibody, V domains shown)
VH: QVQLQESGPDLVKPGASVMISCKASGYSFTYYYMHWVKQSHGKTLEWIGRIYPYNGDTNYNRRFKDKAILTVDESSSTAYMELRSLTSEDSAVYFCARDANYEGDWYFDVWGQGTTVTVSS
VL: DIQMTQSPSSFSVSLGDRVTITCKASEDIYNRVAWYQQKPGNAPRLLMSDATSLGAGVPSRFSGSGSGKDHTLSITSLQTEDVATYYCQQYWNTRTFGGGTKLEIKR
B1: binds [1].

B2: VN04-3-huG1 (antibody, V domains shown)
VH: B1 VH
VL: B1 VL
B2: binds [2].
